Test [1] has as its target T1, human TIM-3 extracellular domain protein with hFc tag (hTIM-3-hFc) (human, UniProt Q8TDQ0 22-200).
T1 construct: not shown: human IgG Fc fragment (hFc) of the pCpC vector
T1 sequence: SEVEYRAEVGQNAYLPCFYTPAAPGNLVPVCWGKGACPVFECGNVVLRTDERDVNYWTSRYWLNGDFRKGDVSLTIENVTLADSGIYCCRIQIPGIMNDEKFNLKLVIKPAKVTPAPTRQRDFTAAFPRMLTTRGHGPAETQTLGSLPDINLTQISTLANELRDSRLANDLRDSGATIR
Description: FACS, blocking of hTIM-3-hFc binding to phosphatidylserine on apoptotic Jurkat cells, 66.667 nM antibody. On the procedure: (§1) Jurkat cells were treated with 1 μM staurosporine at 37° C. for 2 hours to induce apoptosis. The presence of phosphatidylserine was detected by Annexin V-FITC cell apoptosis detection kit. […] The cells were washed 1-2 times with PBS buffer, and after cell counting, the cells were diluted to 1-2×10⁶ cells per milliliter with binding buffer, and added to a 96-well FACS reaction plate at 100 microliters per well. The antibody sample to be tested and 2 μg/ml hTIM-3-hFc protein were prepared with binding buffer, and mixed equally in volume. The mixture was incubated at room temperature for 30 minutes, then the FACS reaction plate incubated with apoptotic cells was centrifuged to discard the supernatant, and the above mixture was added to the apoptotic cells at 100 microliters per well and incubated at room temperature for 1 hour. The plate was washed twice with the binding buffer by centrifugation, added with 100 microliters of fluorescent (Alexa 488)-labeled secondary antibodies per well, and incubated for half an hour. The plate was washed 2-3 times with the binding buffer by centrifugation, added with 100 microliters of PBS per well to suspend cells, and detected using FACS (FACS Calibur, BD) and the results were analyzed. The results are shown in Table 15 and FIG. 15, wherein the IgG control is human IgG, and the data in the table is the inhibition rate (%).
In general terms: Flow cytometry measures light scatter and fluorescence of single cells or particles in a stream.

Test [2] concerns the target T1, human TIM-3 extracellular domain …. The test can be described thus: FACS, blocking of hTIM-3-hFc binding to phosphatidylserine on apoptotic Jurkat cells, 7.407 nM antibody. On the procedure: as §1
Test [3] has the same target. The test can be described thus: FACS, blocking of hTIM-3-hFc binding to phosphatidylserine on apoptotic Jurkat cells, 200 nM antibody. How it is done: as §1
Test [4] shares this target. Description: FACS, blocking of hTIM-3-hFc binding to phosphatidylserine on apoptotic Jurkat cells, 22.222 nM antibody. On the procedure: as §1
Test [5] addresses T2, human TIM-3, full length, on cells (human, UniProt Q8TDQ0 22-301).
T2 construct: Also used here for native TIM-3 on PBMC in the functional rows; also called CHOK1-hTIM-3; HEK293-h TIM-3
T2 sequence: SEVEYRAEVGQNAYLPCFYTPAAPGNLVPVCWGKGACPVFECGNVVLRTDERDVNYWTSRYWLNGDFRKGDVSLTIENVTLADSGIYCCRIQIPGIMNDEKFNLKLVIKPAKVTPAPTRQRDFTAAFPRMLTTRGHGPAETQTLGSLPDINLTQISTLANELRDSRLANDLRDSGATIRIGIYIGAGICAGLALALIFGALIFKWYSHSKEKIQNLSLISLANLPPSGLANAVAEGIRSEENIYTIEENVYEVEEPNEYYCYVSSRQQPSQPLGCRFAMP
Description: FACS, CHOK1-hTIM-3 cells; antibody 0.013 nM. The text has this: (§2) The pIRES plasmid containing the full-length nucleotide sequence encoding human TIM-3 as described in Example 1 was transfected into CHOK1 cell line to obtain a CHOK1 stable cell line containing human TIM-3 (herein referred to as CHOK1-hTIM-3 stable cell line). The pIRES plasmid containing the full-length gene of monkey TIM-3 was transfected into CHOK1 cell line to construct a CHOK1 stable cell line containing monkey TIM-3 (herein referred to as CHOK1-cTIM-3 stable cell line). The CHOK1-hTIM-3 stable cell line and CHOK1-cTIM-3 stable cell line were expanded to a confluence of 90% in a T-75 cell culture flask. The medium was aspirated, and the cells were washed with HBSS (Hanks' Balanced Salt Solution) 1-2 times, and then treated with an enzyme-free cell dissociation solution (Versene solution: Life technology) and the cells were collected. The cells were washed with HBSS buffer for 1-2 times. After counted, the cells were diluted with HBSS to 1-2×10⁶ cells per ml, added with 1% goat serum blocking solution, incubated on ice for 20-30 minutes, and then washed with HBSS by centrifugation 2 times. The collected cells were suspended in the FACS buffer (HBSS+1% BSA) to 2×10⁶ cells/ml, added as 100 microliters per well to a 96-well FACS reaction plate, added with 100 microliters per well of the antibody sample to be tested, incubated on ice for 1-2 hours. The plate was washed twice with the FACS buffer by centrifugation, added with 100 microliters of fluorescent (Alexa 488)-labeled secondary antibodies per well, and incubated on ice for 0.5-1.0 hours. The plate was washed 2-3 times with FACS buffer by centrifugation, added with 100 μl fixative solution (4% Paraformaldehyde) per well to suspend the cells. 5-10 minutes later, it was washed 1-2 times with FACS buffer by centrifugation. The cells were suspended with 100 microliters of FACS buffer, FACS (FACSCalibur, BD) was used for detection and the results were analyzed. The results are shown in FIGS. 7 and 8, Tables 7 and 8, wherein the IgG control is rat IgG, and the data in the table are the average fluorescence intensity values of the cell populations measured by MFI.

Test [6] addresses T2, human TIM-3, full length, on cells. The test can be described thus: FACS, CHOK1-hTIM-3 cells; antibody 40 nM.
Source text: as §2

Test [7] shares this target. The test can be described thus: FACS, CHOK1-hTIM-3 cells; antibody 8 nM.
Source text: as §2

For test [8] the target is unchanged. Description: FACS, CHOK1-hTIM-3 cells; antibody 0.064 nM.
Source text: as §2

For test [9] the target is unchanged. The test can be described thus: FACS, CHOK1-hTIM-3 cells; antibody 200 nM.
Source text: as §2

The target is the same in test [10]. Description: FACS, CHOK1-hTIM-3 cells; antibody 0.32 nM.
Source text: as §2

B1: 134H3G6 fully human TIM-3 antibody (human IgG4, kappa) (antibody, V domains shown)
VH: EVQLVESGGGLVQPGGSLRLSCAASGFTFSNSWMTWVRQAPGKGLEWVANIKQAGTEKYYVDSVKGRFTISRDNAKNSLYLQMNSLRAEDTAVYYCNSGSNYFDYWGQGTLVTVSS
VL: EIVMTQSPATLSVSPGERATLSCRARQNFYSNLAWYQQKPGQAPRLLIYGASTRATGIPARFSGSGSGTEFTLTISSLQSEDFAVYYCQQYNNWPLTFGGGTKVEIK
Turning to B1, the “Inhibition ratio (%)” value in [1] was determined as 52.3%; in [2] it was 60.1%; in test [3] it was 37.6%; in test [4] it was 58.4%.

B2: 18D2H2 (TIM-3 antibody purified from hybridoma, chimeric antibody of Example 2) (antibody, V domains shown)
VH: EVQLVESGGDLVQPGGSLRLSCAASGFTFSTYWMTWVRQAPGRGLEWVANIKQDGSAKYYVDSVKGRFTLSRDDAKNSLYLQMNSLRAEDTAVYYCARGSNWFDYWGQGTLVTVSS
VL: ETVMTQSPATLSVSPGERATLSCRANQNVYSNLAWYQQKPGQAPRLLIYDASTRATGFPARFSGSGSGTEFTLTISSLQSEDFAVYYCQQYNNWPLTFGGGTKVEIK
notes: From hybridoma of Harbour H2L2 transgenic mice: human variable regions, rat constant regions
Regarding B2, the Mean fluorescence intensity in [5] was found to be 4.2; in test [6] it was 185; in test [7], 107; in [8] it was 6.6; in [9] it was 212; in test [10], 15.6.

B3: 57F4E5 (TIM-3 antibody purified from hybridoma, chimeric antibody of Example 2) (antibody, V domains shown)
VH: EVQLVESGGGLVQPGGSLRLSCAASGFTFSSYWMSWVRQAPGKGLEWVANIKQDGSEKYYVDSVKGRFTISRDSAKNSLYLQMNSLRAEDTAMYFCARDSNFFDYWGQGTLVTVSS
VL: ETVMTQSPATLSVSPGERATLSCRASQSVSSNLAWYQRKPGQAPRLLIYFSSTRATGIPARFSGSGSGTEFTLTISSLQSEDFAVYYCQQYNNWPLTFGGGTKVEIK
notes: as for B2
Turning to B3, the Mean fluorescence intensity in [5] is 21.2; in [6] it was 485; in [7] it was 478; in [8] it was 58.1; in test [9] it was 485; in [10], 177.

B4: 134H3G6 (TIM-3 antibody purified from hybridoma, chimeric antibody of Example 2) (antibody, V domains shown)
VH: EVQLVESGGGLVQPGGSLRLSCAASGFTFSNSWMTWVRQAPGKGLEWVANIKQAGTEKYYVDSVKGRFTISRDNAKNSLYLQMNSLRAEDTAVYYCNSGSNYFDYWGQGTLVTVSS
VL: EIVMTQSPATLSVSPGERATLSCRARQNFYSNLAWYQQKPGQAPRLLIYGASTRATGIPARFSGSGSGTEFTLTISSLQSEDFAVYYCQQYNNWPLTFGGGTKVEIK
notes: as for B2
B4: the Mean fluorescence intensity in test [5] was determined as 4.7; in test [6], 230; in test [7] it was 139; in test [8], 8.2; in test [9] it was 261; in test [10], 17.7.

B5: 18D2H2 fully human TIM-3 antibody (human IgG4, kappa) (antibody, V domains shown)
VH: EVQLVESGGDLVQPGGSLRLSCAASGFTFSTYWMTWVRQAPGRGLEWVANIKQDGSAKYYVDSVKGRFTLSRDDAKNSLYLQMNSLRAEDTAVYYCARGSNWFDYWGQGTLVTVSS
VL: ETVMTQSPATLSVSPGERATLSCRANQNVYSNLAWYQQKPGQAPRLLIYDASTRATGFPARFSGSGSGTEFTLTISSLQSEDFAVYYCQQYNNWPLTFGGGTKVEIK
As to B5, the “Inhibition ratio (%)” value in test [1] amounted to 62.3%; in [2] it was 64.9%; in test [3] it was 56.1%; in test [4], 63.9%.

B6: 215A8F2 fully human TIM-3 antibody (human IgG4, kappa) (antibody, V domains shown)
VH: QVQLQQWGAGLLKPSETLSLTCTVYGGSFSGYYWNWIRQPPGKGLEWLGEINHSGSTNYNPSLKRRVTISVDTSKNQFSLKLSSVTAADTAVYYCARVYYYGPFDFWGQGTLVTVSS
VL: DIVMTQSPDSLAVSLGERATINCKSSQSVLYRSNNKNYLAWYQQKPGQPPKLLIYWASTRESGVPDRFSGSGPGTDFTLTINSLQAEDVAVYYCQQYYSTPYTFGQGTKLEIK
Consider B6, for which the “Inhibition ratio (%)” value in test [1] amounted to 57.2%; in test [2], 59.5%; in [3], 52.1%; in test [4] it was 61.8%.

B7: 215A8F2 (TIM-3 antibody purified from hybridoma, chimeric antibody of Example 2) (antibody, V domains shown)
VH: QVQLQQWGAGLLKPSETLSLTCTVYGGSFSGYYWNWIRQPPGKGLEWLGEINHSGSTNYNPSLKRRVTISVDTSKNQFSLKLSSVTAADTAVYYCARVYYYGPFDFWGQGTLVTVSS
VL: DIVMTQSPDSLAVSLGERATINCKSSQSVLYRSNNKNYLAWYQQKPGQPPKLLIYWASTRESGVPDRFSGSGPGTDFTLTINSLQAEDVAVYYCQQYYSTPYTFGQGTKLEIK
notes: as for B2
Consider B7, for which the Mean fluorescence intensity in [5] was 8.6; in [6], 610; in test [7] it was 608; in [8], 18.7; in test [9], 613; in test [10] it was 55.6.

B8: 7A4F10 fully human TIM-3 antibody (human IgG4, kappa) (antibody, V domains shown)
VH: EVQLLESGGGLVQPGGSLRLSCAASGFTFRTHLISWVRQAPGKGLEWVAAITGSGGSTYYADSVKGRFIISRDNSKNTLFLQMNSLRAEDTAVYYCAKDGGSGSYDDFWGQGTLVTVSS
VL: ETVLTQSPVTLSLSPGERATLSCRASQSVGSYLAWYQQKPGQAPRLLIYDASNRATGIPARFSGSGSGTDFTLTISSLEPEDFAVYYCQQRSNWPPTFGQGTKVEIK
Turning to B8, the “Inhibition ratio (%)” value in [1] was 60.5%; in test [2], 62.4%; in [3] it was 56.9%; in test [4], 62.1%.

B9: 7A4F10 (TIM-3 antibody purified from hybridoma, chimeric antibody of Example 2) (antibody, V domains shown)
VH: EVQLLESGGGLVQPGGSLRLSCAASGFTFRTHLISWVRQAPGKGLEWVAAITGSGGSTYYADSVKGRFIISRDNSKNTLFLQMNSLRAEDTAVYYCAKDGGSGSYDDFWGQGTLVTVSS
VL: ETVLTQSPVTLSLSPGERATLSCRASQSVGSYLAWYQQKPGQAPRLLIYDASNRATGIPARFSGSGSGTDFTLTISSLEPEDFAVYYCQQRSNWPPTFGQGTKVEIK
notes: as for B2
As to B9, the Mean fluorescence intensity in test [5] is 3.3; in test [6] it was 144; in test [7], 56.2; in test [8], 4.3; in test [9] it was 145; in [10], 6.8.

(Values after patent publication US20220033501A1 (SHANGHAI PHARMAEXPLORER, published 2022).)
